Reference: patent US7893216B2 (The Institute of Basic Medical Sciences of Chinese Academy …, priority 2004, dated 2011)

Experiments:
[1] = tested on: liver cancer cells SMMC-7721; assay: Tumoricidal activity in vivo, SMMC-7721 cells in nude mice; set-up: species or system nude mice BALB/c; conditions: SMMC-7721 in nude mice
Protocol: (§1) The dose was 15 mg/kg, three times administration in total. The mice of negative control group (n=8) were administrated with physical saline. The mice of positive control group (n=5) were administrated with cyclophosphamide (CTX, 60 mg/kg). […] Three weeks later, the mice were sacrificed and the growth of tumor was determined by the weight of the tumor mass.

[2] = target: T1, recombinant human DR4 extracellular domain protein (Homo sapiens, UniProt O00220); assay: ELISA cross-reactivity of AD5-10 with DR4; assay type: binding
T1 construct: recombinant human DR4 or DR5 extracellular domain protein expressed in E. coli; made in house; host or cells: E. coli
Protocol: ELISA was used for testing the specific combination of AD5-10 with its anitgen. ELISA plates (Costar, USA) were coated with recombinant human DR4 or DR5 extracellular domain protein expressed in E. coli over night, blocked with 5% nonfat milk at room temperature for two hours. […] The absorbency at 492 nm was measured on a microtiter reader of enzyme-labelled machine, Wellscan MK3 (Thermo Labsystems, Finland).

[3] = tested on: tumor cells such as liver and lung cancer; assay: Synergy of tumoricidal activity with TRAIL; assay type: cell-based; conditions: combined with TRAIL
Jurkat cells = assay: Western blot of caspase activation and PARP cleavage; assay type: cell-based, human
Protocol: After the collected cells were lysed in cell cleavage solution, SDS-PAGE was used, the proteins separated in the gel were subsequently electrotransferred onto a polyvinylidene difluoride (PVDF) membrane. The membrane was then incubated with the indicated primary antibodies (Santa Cruz, USA) and probed with HRP-conjugated secondary antibodies (Beijing Zhongshan Co.). The proteins were visualized by ECL Plus Western Blotting Detection System (Amersham Biosciences, USA).

[4] = tested on: human leukemia, liver and lung cancer cells; assay: Suppression of tumor formation and growth of human tumor cells in nude mice; assay type: in vivo; conditions: compared to the control group
Protocol: as §1

[5] = tested on: human primary normal lymphocytes; assay: Effect on normal human primary lymphocytes in vitro (MTS); assay type: cell-based
Protocol: (§2) After treatment, MTS reagent (Promega, USA) was then added and reacted for 2-4 hours and the absorbance values (OD value) of each well were read by using an automatic multi-well spectrophotometer, Wellscan MK3 (Thermo Labsystems, Finland) at the wavelength of 492 nm. OD value of no cell wells is considered as “0,” and the survival rate of the cells is equal to ratio of OD value of treated wells to OD value of control wells.

[6] = tested on: leukemia, liver and lung cancer cells; assay: Tumoricidal activity in vitro (MTS cell viability); assay type: cell-based, human
Protocol: as §2

T1 sequence (O00220 24-239 limits assumed): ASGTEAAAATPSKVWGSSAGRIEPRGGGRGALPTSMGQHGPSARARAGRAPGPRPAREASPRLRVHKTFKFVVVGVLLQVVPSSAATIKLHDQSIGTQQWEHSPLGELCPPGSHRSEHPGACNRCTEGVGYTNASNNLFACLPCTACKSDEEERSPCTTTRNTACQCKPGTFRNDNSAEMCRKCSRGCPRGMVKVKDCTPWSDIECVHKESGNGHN

B1: AD5-10: murine monoclonal antibody against human TRAIL receptor DR5, subtype IgG3κ, VL SEQ ID No. 1, VH SEQ ID No. 2, hybridoma CGMCC 1192 (antibody, V domains shown)
VH: QIQLVQSGPELKKPGETVKISCKASGYTFTDFSMNWVKQAPGKGLKWMGWINTETGEPTYADDFKGRFALSMETSASTAYLQINNLKNEDTATYFCVRIDYWGQGTTLTVSS
VL: DVVMTQTPLSLPVSLGDQASISCRSSQSLVHSNGNTYLHWYLQKPGQSPKLLIYKVSNRFSGVPDRFSGSGSGTDFTLKISRVEAEDLGVYFCFQSTHVPHTFGGGTKLEIKR
modifications: mus musculus
[1]; early treatment
  tumor formation: inhibits the tumor formation
[1]; late treatment
  tumor growth: inhibites the tumor growth
[2]
  cross-reaction with death receptor DR4: does not cross-react
[3]
  synergy with TRAIL: can synergize the tumoricidal activity with TRAIL
Jurkat cells
  caspase cascade activation and PARP cleavage: activates caspase cascade and PARP (poly ADP-ribose polymerase) cleavage
[4]
  inhibition rate: about 80%
Toxicity study in mice; 150 mg/kg, 1 and 2 month's observation
  death and abnormalism in appetite, function, skin and hair: does not cause observably death
Toxicity study in mice; mice, organs such as liver
  histological analysis of organs: no pathological changes
[5]
  toxicity to normal lymphocytes: without toxicity to human primary normal lymphocytes in vitro
[6]
  killing of tumor cells: kills leukemia, liver and lung cancer cells with dose-dependent manner
